The source of these data is article PMC7550751, “Application of Force to a Syndecan-4 Containing Complex With Thy-1–αVβ3 Integrin Accelerates Neurite Retraction” (Frontiers in Molecular Biosciences, 2020).

Test [1] deals with Commercially purified human Syndecan (ectodomain)-4-Fc (UniProt P31431). The test is described as follows: optical tweezers (miniTweezers) force-ramp adhesion frequency assay. Particulars: loading rate 10 pN/s; Hepes buffer (10 mM Hepes, pH 7.4) containing 100 mM NaCl and 1 mM MgCl2 at 25°C; parent: est. 0.79; read off a plot.
Test [2] addresses T1, Commercially purified human Syndecan (ectodomain)-4-Fc, P31431.
T1 chain: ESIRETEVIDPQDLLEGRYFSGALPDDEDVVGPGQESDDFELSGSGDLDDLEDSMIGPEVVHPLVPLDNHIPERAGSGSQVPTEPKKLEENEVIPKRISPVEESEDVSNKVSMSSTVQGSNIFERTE
The description is as above. Particulars: chain shown with the change; loading rate 10 pN/s; Hepes buffer (10 mM Hepes, pH 7.4) containing 100 mM NaCl and 1 mM MgCl2 at 25°C; parent: est. 0.79; read off a plot.

The target of test [3] is T2, Thy-1-Fc wild type (UniProt P01831 20-131).
T2 construct: In the functional rows m1 stands for Thy-1 on the surface of CAD neuronal cells; also called Thy-1(RLD)-Fc; CD90; source: purified; obtained as previously reported (Schneider, 2000; Leyton et al., 2001)
T2 sequence (looked up): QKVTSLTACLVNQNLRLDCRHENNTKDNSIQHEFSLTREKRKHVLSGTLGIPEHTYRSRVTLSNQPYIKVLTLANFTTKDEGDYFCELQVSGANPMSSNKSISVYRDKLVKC
Kind of test: optical tweezers force spectroscopy (constant-force bond lifetime assay); miniTweezers; Thy-1-Fc on the 2.1 μm bead held by a micropipette; αVβ3-Fc, Syndecan-4-Fc or both on the 3.1 μm trapped bead (controls with TRAIL-R2-Fc added); constant forces 10, 20, 30, 40 and 50 pN; lifetimes fitted to the Bell model for values at zero force; 10 mM Hepes pH 7.4, 100 mM NaCl, 1 mM MgCl2, 25°C. Particulars: both partners purified.

Take “Thy-1-Fc wild type (from UniProt P01831) AEAAA”: the other: adhesion frequency in test [1] was found to be 0.4.

B1: Thy-1-Fc wild type, P01831 RLE (protein)
chain: QKVTSLTACLVNQNLRLECRHENNTKDNSIQHEFSLTREKRKHVLSGTLGIPEHTYRSRVTLSNQPYIKVLTLANFTTKDEGDYFCELQVSGANPMSSNKSISVYRDKLVKC
With B1, the other: adhesion frequency in test [2] is 0.81.

B2: Commercially purified human Syndecan (ectodomain)-4-Fc (Fc fusion, UniProt P31431 19-145, looked up)
chain: ESIRETEVIDPQDLLEGRYFSGALPDDEDVVGPGQESDDFELSGSGDLDDLEDSMIGPEVVHPLVPLDNHIPERAGSGSQVPTEPKKLEENEVIPKRISPVEESEDVSNKVSMSSTVQGSNIFERTE
notes: Syndecan-4, human, ectodomain; Heparan sulfate proteoglycan; also called Syndecan-4-Fc; Synd-4-Fc
Take B2: the “bond lifetime at zero force (τ0)” value in test [3] came out at 3.06 ± 0.22 s.

B3: Recombinant αVβ3-Fc integrin (Fc fusion)
chain 1: FNLDVDSPAEYSGPEGSYFGFAVDFFVPSASSRMFLLVGAPKANTTQPGIVEGGQVLKCDWSSTRRCQPIEFDATGNRDYAKDDPLEFKSHQWFGASVRSKQDKILACAPLYHWRTEMKQEREPVGTCFLQDGTKTVEYAPCRSQDIDADGQGFCQGGFSIDFTKADRVLLGGPGSFYWQGQLISDQVAEIVSKYDPNVYSIKYNNQLATRTAQAIFDDSYLGYSVAVGDFNGDGIDDFVSGVPRAARTLGMVYIYDGKNMSSLYNFTGEQMAAYFGFSVAATDINGDDYADVFIGAPLFMDRGSDGKLQEVGQVSVSLQRASGDFQTTKLNGFEVFARFGSAIAPLGDLDQDGFNDIAIAAPYGGEDKKGIVYIFNGRSTGLNAVPSQILEGQWAARSMPPSFGYSMKGATDIDKNGYPDLIVGAFGVDRAILYRARPVITVNAGLEVYPSILNQDNKTCSLPGTALKVSCFNVRFCLKADGKGVLPRKLNFQVELLLDKLKQKGAIRRALFLYSRSPSHSKNMTISRGGLMQCEELIAYLRDESEFRDKLTPITIFMEYRLDYRTAADTTGLQPILNQFTPANISRQAHILLDCGEDNVCKPKLEVSVDSDQKKIYIGDDNPLTLIVKAQNQGEGAYEAELIVSIPLQADFIGVVRNNEALARLSCAFKTENQTRQVVCDLGNPMKAGTQLLAGLRFSVHQQSEMDTSVKFDLQIQSSNLFDKVSPVVSHKVDLAVLAAVEIRGVSSPDHVFLPIPNWEHKENPETEEDVGPVVQHIYELRNNGPSSFSKAMLHLQWPYKYNNNTLLYILHYDIDGPMNCTSDMEINPLRIKISSLQTTEKNDTVAGQGERDHLITKRDLALSEGDIHTLGCGVAQCLKIVCQVGRLDRGKSAILYVKSLLWTETFMNKENQNHSYSLKSSASFNVIEFPYKNLPIEDITNSTLVTTNVTWGIQPAPMPV
chain 2: GPNICTTRGVSSCQQCLAVSPMCAWCSDEALPLGSPRCDLKENLLKDNCAPESIEFPVSEARVLEDRPLSDKGSGDSSQVTQVSPQRIALRLRPDDSKNFSIQVRQVEDYPVDIYYLMDLSYSMKDDLWSIQNLGTKLATQMRKLTSNLRIGFGAFVDKPVSPYMYISPPEALENPCYDMKTTCLPMFGYKHVLTLTDQVTRFNEEVKKQSVSRNRDAPEGGFDAIMQATVCDEKIGWRNDASHLLVFTTDAKTHIALDGRLAGIVQPNDGQCHVGSDNHYSASTTMDYPSLGLMTEKLSQKNINLIFAVTENVVNLYQNYSELIPGTTVGVLSMDSSNVLQLIVDAYGKIRSKVELEVRDLPEELSLSFNATCLNNEVIPGLKSCMGLKIGDTVSFSIEAKVRGCPQEKEKSFTIKPVGFKDSLIVQVTFDCDCACQAQAEPNSHRCNNGNGTFECGVCRCGPGWLGSQCECSEEDYRPSQQDECSPREGQPVCSQRGECLCGQCVCHSSDFGKITGKYCECDDFSCVRYKGEMCSGHGQCSCGDCLCDSDWTGYYCNCTTRTDTCMSSNGLLCSGRGKCECGSCVCIQPGSYGDTCEKCPTCPDACTFKKECVECKKFDRGALHDENTCNRYCRDEIESVKELKDTGKDAVNCTYKNEDDCVVRFQYYEDSSGKSILYVVEEPECPKGPD
notes: integrin αV, ectodomain; integrin β3, ectodomain; Construct: Burgos-Bravo et al., 2018; also called αVβ3 integrin; source: HEK293T, transiently transfected, secreted into serum-free medium; purified as published (Burgos-Bravo et al., 2018) for optical tweezers; used as medium in the neurite retraction assay
B3: the “bond lifetime at zero force (τ0)” value in test [3] is 6.79 ± 1.49 s.

B4: αVβ3-Fc + Syndecan-4-Fc (both on one bead) (complex)
chain 1: FNLDVDSPAEYSGPEGSYFGFAVDFFVPSASSRMFLLVGAPKANTTQPGIVEGGQVLKCDWSSTRRCQPIEFDATGNRDYAKDDPLEFKSHQWFGASVRSKQDKILACAPLYHWRTEMKQEREPVGTCFLQDGTKTVEYAPCRSQDIDADGQGFCQGGFSIDFTKADRVLLGGPGSFYWQGQLISDQVAEIVSKYDPNVYSIKYNNQLATRTAQAIFDDSYLGYSVAVGDFNGDGIDDFVSGVPRAARTLGMVYIYDGKNMSSLYNFTGEQMAAYFGFSVAATDINGDDYADVFIGAPLFMDRGSDGKLQEVGQVSVSLQRASGDFQTTKLNGFEVFARFGSAIAPLGDLDQDGFNDIAIAAPYGGEDKKGIVYIFNGRSTGLNAVPSQILEGQWAARSMPPSFGYSMKGATDIDKNGYPDLIVGAFGVDRAILYRARPVITVNAGLEVYPSILNQDNKTCSLPGTALKVSCFNVRFCLKADGKGVLPRKLNFQVELLLDKLKQKGAIRRALFLYSRSPSHSKNMTISRGGLMQCEELIAYLRDESEFRDKLTPITIFMEYRLDYRTAADTTGLQPILNQFTPANISRQAHILLDCGEDNVCKPKLEVSVDSDQKKIYIGDDNPLTLIVKAQNQGEGAYEAELIVSIPLQADFIGVVRNNEALARLSCAFKTENQTRQVVCDLGNPMKAGTQLLAGLRFSVHQQSEMDTSVKFDLQIQSSNLFDKVSPVVSHKVDLAVLAAVEIRGVSSPDHVFLPIPNWEHKENPETEEDVGPVVQHIYELRNNGPSSFSKAMLHLQWPYKYNNNTLLYILHYDIDGPMNCTSDMEINPLRIKISSLQTTEKNDTVAGQGERDHLITKRDLALSEGDIHTLGCGVAQCLKIVCQVGRLDRGKSAILYVKSLLWTETFMNKENQNHSYSLKSSASFNVIEFPYKNLPIEDITNSTLVTTNVTWGIQPAPMPV
chain 2: GPNICTTRGVSSCQQCLAVSPMCAWCSDEALPLGSPRCDLKENLLKDNCAPESIEFPVSEARVLEDRPLSDKGSGDSSQVTQVSPQRIALRLRPDDSKNFSIQVRQVEDYPVDIYYLMDLSYSMKDDLWSIQNLGTKLATQMRKLTSNLRIGFGAFVDKPVSPYMYISPPEALENPCYDMKTTCLPMFGYKHVLTLTDQVTRFNEEVKKQSVSRNRDAPEGGFDAIMQATVCDEKIGWRNDASHLLVFTTDAKTHIALDGRLAGIVQPNDGQCHVGSDNHYSASTTMDYPSLGLMTEKLSQKNINLIFAVTENVVNLYQNYSELIPGTTVGVLSMDSSNVLQLIVDAYGKIRSKVELEVRDLPEELSLSFNATCLNNEVIPGLKSCMGLKIGDTVSFSIEAKVRGCPQEKEKSFTIKPVGFKDSLIVQVTFDCDCACQAQAEPNSHRCNNGNGTFECGVCRCGPGWLGSQCECSEEDYRPSQQDECSPREGQPVCSQRGECLCGQCVCHSSDFGKITGKYCECDDFSCVRYKGEMCSGHGQCSCGDCLCDSDWTGYYCNCTTRTDTCMSSNGLLCSGRGKCECGSCVCIQPGSYGDTCEKCPTCPDACTFKKECVECKKFDRGALHDENTCNRYCRDEIESVKELKDTGKDAVNCTYKNEDDCVVRFQYYEDSSGKSILYVVEEPECPKGPD
chain 3: ESIRETEVIDPQDLLEGRYFSGALPDDEDVVGPGQESDDFELSGSGDLDDLEDSMIGPEVVHPLVPLDNHIPERAGSGSQVPTEPKKLEENEVIPKRISPVEESEDVSNKVSMSSTVQGSNIFERTE
notes: integrin αV, ectodomain, as in m5; integrin β3, ectodomain, as in m5; Syndecan-4, human, ectodomain, as in m6; Not a complex formed beforehand: m5 and m6 were put together on bead 2 and met Thy-1-Fc on bead 1; also called αVβ3 integrin + Syndecan-4; source: αVβ3-Fc: HEK293T, purified; Syndecan-4-Fc: commercially purified; both attached to one protein G-coated bead; copies: + +
Take B4: the “bond lifetime at zero force (τ0)” value in test [3] was found to be 11.6 ± 1.34 s.
